Test results reported in patent publication US20250134988A1.

Biological target: CoV2_5P prefusion-stabilized spike protein (SARS-CoV-2) (UniProt P0DTC2)
Assay: ELISA

CR3022 (antibody) gave an EC50 (read off the curve) of 0.02 µg/mL.
